According to doi:10.1101/2022.07.31.502215:

Biological target: SARS-CoV-2 main protease (Mpro) H172Y (SARS-CoV-2)

Dabcyl-KTSAVLQ↓SGFRKM-E(Edans)-NH2 FRET substrate (peptide)
Michaelis constant Km, FRET-based cleavage assay (400 nM enzyme, substrate 10 to 320 μM, 20 mM HEPES, 120 mM NaCl, pH 7.0): 803 μM
